Source: patent US7482133B2, “Catalytic domains of β(1,4)-galactosyltransferase I having altered donor and acceptor specificities, domains that promote in vitro protein folding, and methods for their use” (The United States of America as represented by the …, priority 2003, dated 2009)
Substitutions are numbered along the chain they refer to. Numbers in names are those of the source.

B1: Y289L_C342T: bovine Gal-T1 catalytic domain (residues 130-402), Tyr-289 exchanged with Leu, with Cys-342 to Thr mutation (protein)
chain: SLTACPEESPLLVGPMLIEFNIPVDLKLIEQQNPKVKLGGRYTPMDCISPHKVAIIILFRNRQEHLKYWLYYLHPMVQRQQLDYGIYVINQAGESMFNRAKLLNVGFKEALKDYDYNCFVFSDVDLIPMNDHNTYRCFSQPRHISVAMDKFGFSLPYVQLFGGVSALSKQQFLSINGFPNNYWGWGGEDDDIYNRLAFRGMSVSRPNAVIGKTRMIRHSRDKKNEPNPQRFDRIAHTKETMLSDGLNSLTYMVLEVQRYPLYTKITVDIGTPS
B2: Y289N: bovine Gal-T1 catalytic domain, Tyr-289 exchanged with Asn (protein)
chain: B1 chain with L160N
B3: bovine CDβ4Gal-T1: catalytic domain (residues 130-402) of bovine β4Gal-T1 (protein, UniProt P08037 130-402, looked up, fragment)
chain: B1 chain with I29V, L58P, M76I, V77L, L160Y, T213C
modifications: catalytic domain
notes: catalytic domain (residues 130-402) of bovine β4Gal-T1
B4: Y289I_C342T: bovine Gal-T1 catalytic domain (residues 130-402), Tyr-289 exchanged with Ile, with Cys-342 to Thr mutation (protein)
chain: B1 chain with L160I
B5: C342T: catalytic domain of bovine Gal-T1 (residues 130-402) with the C342T mutation (protein, UniProt P08037 130-402, looked up, variant C342T)
chain: B1 chain with I29V, L58P, M76I, V77L, L160Y
modifications: catalytic domain
notes: catalytic domain of bovine Gal-T1 (residues 130-402) with the C342T mutation

Tests used:
Type in all cases: biochemical
[1] = Gal-T specific activity assay; conditions: donor 500 μM; acceptor β-benzyl-GlcNAc 25 mM (10 mM for C342T); saturating conditions
Description: (§1) For example, the galactose and N-acetylgalactosyltransferase activity of β(1,4)-galactosyltransferase I can be determined using the following assay conditions. […], 10 mM MnCl2, 10 mM Tris-HCl (pH 8.0), 500 μM UDP-Gal or UDP-GalNAc, and 20 ng of β(1,4)-galactosyltransferase I can be incubated at 37° C. for 10 minutes to promote coupling of a donor sugar to an acceptor sugar. While these conditions are provided as an example, it is understood that many other conditions may be used to chemically link a donor to an acceptor using the altered catalytic domains of the invention.
(§2) Gal-T and GalNAc-T Enzyme Assays: The protein concentrations were measured using the Bio-Rad protein assay kit, based on the method of Bradford and further verified on SDS gel. […] The activities were measured using UDP-Gal or UDP-GalNAc as sugar nucleotide donors, and GlcNAc and Glc as the acceptor sugars. For the specific activity measurements, […], 10 mM MnCl2, 10 mM Tris-HCl, pH 8.0, 500 μM UDP-Gal or UDP-GalNAc, 20 ng of Gal-T1, and 0.5 μCl of [^3H]UDP-Gal or [^3H]UDP-GalNAc was used for each Gal-T or GalNAc-T reaction. The incubation was carried out at 37° C. for 10 min. […] The column was washed successfully with 300, 400, and 500 μl of water, and the column flow-through was diluted with Biosafe scintillation fluid; radioactivity was measured with a Beckman counter. A reaction without the acceptor sugar was used as a control. A similar assay was carried out to measure the GalNAc-T activity with Glc and other acceptors in the presence of 50 μM bovine LA (Sigma).

[2] = GalNAc-T specific activity assay; conditions: for galactose transferase versus N-acetylgalactosyltransferase activity: comparison in words (Table III, FIG. 1); for UDP-GalNAc → GlcNAc GalNAc-T activity: donor 500 μM, acceptor β-benzyl-GlcNAc 25 mM
Description: as §1, §2

[3] = GlcNAc-T specific activity assay; conditions: donor 500 μM; acceptor β-benzyl-GlcNAc 25 mM
[4] = Two-substrate kinetic constants, Gal-T reaction; conditions: for KA (true Km of the donor), Gal-T / KB (true Km of the acceptor), Gal-T / Kcat., Gal-T: UDP-galactose → GlcNAc; for Kcat., Gal-T: unit assumed
Description: (§3) Studies for Determining the Kinetic Constants: The true Km of the donor (KA) and of the acceptor (KB), the dissociation constant of the donor, Ki(a), and kcat were obtained using two-substrate analyses and the primary plots of five concentrations of donor (UDP-Gal or UDP-GalNAc) and five concentrations of acceptor, and the corresponding secondary plots of the intercepts and slopes. Initial rate conditions were linear with respect to time. A suitable range of donor and acceptor concentrations were chosen, which allowed an accurate Michaelis-Menten plot to be derived. The data were also analyzed for a general two-substrate system using the following equations (Zhang et al., Glycobiology, 9:815-822 (1999)) with the software EnzFitter, a Biosoft nonlinear curve-fitting program for Windows.
(§4) [formula] Here v is the initial velocity and the rate equation for sequential symmetrical initial velocity pattern associated with Equation 1, an ordered or random equilibrium mechanism in which substrate A dissociates well from the E-S complex with a dissociation constant of Ki(a). Equation 2 is for asymmetric initial velocity pattern for a double displacement or “ping-pong” mechanism. The kinetic parameters KA, KB, Ki(a), and Vmax, were obtained from the fitted curves using the above rate equations. The graphical method and EnzFitter program gave very similar kinetic parameters. In the N-acetylgalactosamine transferase (GalNAc-T) assay, the maximum substrate concentrations used for UDP-GalNAc and GlcNAc were 1 and 200 mM, respectively. However, in the galactose transferase (Gal-T) assay, because of the limited solubility of GlcNAc in water, the concentration of GlcNAc was limited to no more than […] (which is 2-fold higher than its Km value), whereas up to 300 μM UDP-Gal were used.

[5] = Two-substrate kinetic constants, GalNAc-T reaction
Description: as §3, §4

[6] = GalNAc-T activity in absence and presence of LA, acceptor GlcNAc; conditions: acceptor GlcNAc 100 mM, 500 μM UDP-GalNAc, 37° C., 10 minutes
Description: (§5) Gal-T and GalNAc-T Enzyme Assays: The protein concentrations were measured using the Bio-Rad protein assay kit, based on the method of Bradford and further verified on SDS gel. […] The activities were measured using UDP-Gal or UDP-GalNAc as sugar nucleotide donors, and GlcNAc and Glc as the acceptor sugars. For the specific activity measurements, a 100-μl incubation mixture containing 50 mM β-benzyl-GlcNAc, 10 mM MnCl2, 10 mM Tris-HCl, pH 8.0, 500 μM UDP-Gal or UDP-GalNAc, 20 ng of Gal-T1, and 0.5 μCl of [^3H]UDP-Gal or [^3H]UDP-GalNAc was used for each Gal-T or GalNAc-T reaction. The incubation was carried out at 37° C. for 10 min. […] The column was washed successfully with 300, 400, and 500 μl of water, and the column flow-through was diluted with Biosafe scintillation fluid; radioactivity was measured with a Beckman counter. A reaction without the acceptor sugar was used as a control. […]

[7] = GalNAc-T activity in absence and presence of LA, acceptor Glc; conditions: for GalNAc-T activity: acceptor Glc 100 mM, 500 μM UDP-GalNAc, 37° C., 10 minutes; for acceptor preference of GalNAc transfer: in the presence of LA
Description: as §5

[8] = GalNAc-T activity in absence and presence of LA, acceptor Glucosamine; conditions: acceptor Glucosamine 100 mM, 500 μM UDP-GalNAc, 37° C., 10 minutes
Description: as §5

[9] = β4Gal-T1 enzyme assay of in vitro folded CD and SRCD proteins; conditions: condition I or VIII
Description: β4Gal-T1 Enzyme Assays: The in vitro assay for β4Gal-T1 enzyme activity was performed as described (Boeggeman et al., Glycobiology, 12:395-407 (2002)). The ^3H-labeled-UDP-Gal was used as sugar donor and GlcNAc as the sugar acceptor. A reaction without GlcNAc was used as a control.
Binding of recombinant proteins to UDP-affinity column: UDP-agarose was used to bind the active proteins at 4° C. Columns containing 1 ml bed volume of UDP-agarose were pre-equilibrated with 10 ml of 25 mM cacodylic buffer, pH 7.6, containing 25 mM MnCl2. The renatured protein solutions (0.5 mg) were adjusted to the pre-equilibration buffer conditions and applied to the columns. After loading the sample, the pass-through was re-cycled. It was then analyzed for the unbound protein by SDS-PAGE. The columns were washed 3× with 1-ml portions of equilibration buffer. The bound protein was eluted with the elution buffer consisting of 25 mM cacodylic buffer, pH 7.6, 25 mM EDTA and 1 M NaCl. Fractions of 0.5 ml were collected from the columns, and aliquots were analysed by SDS-PAGE. For enzymatic analysis the appropriate fractions were pooled and dialysed against 50 mM Tris-HCl pH 8.0 at 4° C. […]

[10] = UDP-N-acetylgalactosamine → GlcNAc

| Molecule | UDP-galactose → GlcNAc Gal-T activity [1] | galactose transferase versus N-acetylgalactosyltransferase activity [2] | UDP-GalNAc → GlcNAc GalNAc-T activity [2] | UDP-GlcNAc → GlcNAc GlcNAc-T activity [3] | KA (true Km of the donor), Gal-T [4] | KB (true Km of the acceptor), Gal-T [4] | Kcat., Gal-T [4] | acceptor preference of GalNAc transfer [7] | other results |
| --- | --- | --- | --- | --- | --- | --- | --- | --- | --- |
| B1 | 16.2 pmol/min/ng | equally strong galactose transferase and N-acetylgalactosyltransferase activities | 27.3 pmol/min/ng | 8.2 pmol/min/ng | 75 (1) μM | 198 mM | 8.5 s⁻¹ | transfer GalNAc preferably to Glc rather than to GlcNAc | catalytic constant (kcat) relative to wild type ([4]; Gal-T1 reaction): comparable with the wild type; Km for the acceptor relative to wild-type Gal-T1 ([4]; Gal-T reaction): ~20 fold; catalytic constant (kcat), fold higher ([5]; GalNAc reaction): 3-5 fold; KA (true Km of the donor), GalNAc-T [5, 10]: 854 (8) μM; KB (true Km of the acceptor), GalNAc-T [5, 10]: 51 (1) mM; Kcat., GalNAc-T [5, 10]: 4.0; GalNAc-T activity ([6]; +LA 55 μM): 3.3 pmol/min/ng; GalNAc-T activity ([6]; −LA): 31.3 pmol/min/ng; GalNAc-T activity ([7]; +LA 55 μM): 34.8 pmol/min/ng; GalNAc-T activity ([7]; −LA): 2.6 pmol/min/ng; GalNAc-T activity ([8]; +LA 55 μM): 5.0 pmol/min/ng; GalNAc-T activity ([8]; −LA): 1.8 pmol/min/ng |
| B2 |  | equally strong galactose transferase and N-acetylgalactosyltransferase activities |  |  |  |  |  | transfer GalNAc preferably to Glc rather than to GlcNAc |  |
| B3 |  |  |  |  |  |  |  |  | specific activity before and after binding on UDP-agarose columns [9]: did not change |
| B4 | 8.8 pmol/min/ng |  | 14.7 pmol/min/ng | 6.2 pmol/min/ng |  |  |  | transfer GalNAc preferably to Glc rather than to GlcNAc | affinity to UDP-GalNAc ([2]; FIG. 1, in words): slightly weaker affinity; specific N-acetylgalactosyltransferase activity relative to Y289L ([2]; at the substrate concentration used): half that of Y289L |
| B5 | 11.8 pmol/min/ng |  | 0.1 pmol/min/ng | 0 pmol/min/ng | 98 (6) μM | 11 (1) MM | 14 s⁻¹ |  |  |
